Reference: patent US20220153832A1 (PIONYR IMMUNOTHERAPEUTICS, published 2022)

T1: N-terminal his-tagged mouse MARCO protein, recombinant (mouse, UniProt Q60754 150-518)
T1 construct: The entry holds the His tag, the CLD and the SRCR domain; also called mMARCO (RG3016); PI-RG-3016
T1 sequence: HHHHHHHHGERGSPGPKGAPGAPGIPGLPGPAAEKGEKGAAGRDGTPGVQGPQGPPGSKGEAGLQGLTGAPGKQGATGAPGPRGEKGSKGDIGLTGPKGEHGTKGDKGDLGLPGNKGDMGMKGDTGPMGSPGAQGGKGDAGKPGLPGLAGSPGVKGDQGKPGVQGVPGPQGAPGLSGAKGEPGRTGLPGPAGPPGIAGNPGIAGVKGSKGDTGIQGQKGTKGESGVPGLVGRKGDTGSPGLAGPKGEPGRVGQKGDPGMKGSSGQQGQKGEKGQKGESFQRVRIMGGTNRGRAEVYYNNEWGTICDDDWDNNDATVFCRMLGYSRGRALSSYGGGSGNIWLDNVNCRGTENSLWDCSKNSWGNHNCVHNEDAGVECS

T2: Mouse MARCO, full length, on cells (mouse, UniProt Q60754 1-518)
T2 construct: whole, on cells; the cell type is named under assay; also called muMARCO; MuMARCO
T2 sequence (looked up): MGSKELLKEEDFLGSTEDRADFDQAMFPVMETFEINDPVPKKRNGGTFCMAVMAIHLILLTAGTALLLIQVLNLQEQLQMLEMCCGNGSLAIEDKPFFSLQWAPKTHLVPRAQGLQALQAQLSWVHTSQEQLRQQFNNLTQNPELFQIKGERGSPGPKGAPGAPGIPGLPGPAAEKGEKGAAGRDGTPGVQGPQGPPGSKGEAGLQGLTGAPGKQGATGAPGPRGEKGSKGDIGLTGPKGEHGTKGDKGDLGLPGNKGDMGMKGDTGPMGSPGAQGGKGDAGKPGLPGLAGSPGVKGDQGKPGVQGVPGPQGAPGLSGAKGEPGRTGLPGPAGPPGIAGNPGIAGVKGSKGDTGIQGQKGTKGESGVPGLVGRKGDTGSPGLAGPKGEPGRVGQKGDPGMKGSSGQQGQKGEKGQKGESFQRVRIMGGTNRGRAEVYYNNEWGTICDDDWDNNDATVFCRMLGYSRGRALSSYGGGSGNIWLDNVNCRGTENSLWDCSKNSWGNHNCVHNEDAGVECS

T3: hMARCO(His-CLD-SRCR) (RG3033) (human, UniProt Q9UEW3 147-520)
T3 construct: also called wild type hMARCO
T3 sequence: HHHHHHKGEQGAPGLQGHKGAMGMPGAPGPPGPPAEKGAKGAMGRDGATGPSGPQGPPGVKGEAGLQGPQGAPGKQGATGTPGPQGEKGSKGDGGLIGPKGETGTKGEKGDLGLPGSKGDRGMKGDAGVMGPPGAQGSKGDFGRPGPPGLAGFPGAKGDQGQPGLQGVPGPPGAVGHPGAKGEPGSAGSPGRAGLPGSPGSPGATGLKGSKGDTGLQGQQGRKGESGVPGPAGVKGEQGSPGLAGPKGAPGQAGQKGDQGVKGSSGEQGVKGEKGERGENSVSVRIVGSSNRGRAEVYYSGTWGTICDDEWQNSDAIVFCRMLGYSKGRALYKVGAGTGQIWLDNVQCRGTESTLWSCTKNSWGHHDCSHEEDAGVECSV


Legend:
[1] = molecular target: T1, N-terminal his-tagged mouse MARCO …; assay: Biacore
[2] = molecular target: T2, Mouse MARCO, full length, on cells; assay: flow cytometry, 293T (muMARCO)
hVar3 (RG3036) = molecular target: T4, hVar3 (RG3036) (human, UniProt Q9UEW3 147-520); assay: ELISA on recombinant hVar3 protein, A450
T4 construct: Human MARCO His-CLD-SRCR with Q452D, Y472S and K473S (already in the entry); also called recombinant human SRCR MARCO hVar3 protein

[3] = molecular target: T1, N-terminal his-tagged mouse MARCO …; assay: ELISA on mMARCO ECD with 2 mM Ca2+, A450-A620
[4] = molecular target: T2, Mouse MARCO, full length, on cells; assay: competition with AF488 E. coli binding to muMARCO 293T cells, flow cytometry
[5] = molecular target: T1, N-terminal his-tagged mouse MARCO …; assay: ProbeLife Gator study, statement on the loaded antibodies
Outline: (§1)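 Antibody pairing on MARCO was assessed by biolayer interferometry on ProbeLife probes. In tandem format, 200 nM His-tagged MARCO was loaded on anti-His probes for 120 s, then a 60 s baseline, a first antibody at 200 nM, then a second antibody at 100-200 nM. In sandwich format, the first antibody (200 nM) was captured on anti-Fc probes for 120 s, followed by 200 nM MARCO and then the second antibody (200 nM), each for 120 s.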

[6] = molecular target: T3, hMARCO(His-CLD-SRCR) (RG3033); assay: as above
Outline: as §1

| Kd [1] | EC50 [2] | binding result (hVar3 (RG3036)) | EC50 (read off the curve) [3] | EC50 [4] | binding result [5] | binding result [6] | Binder |
| --- | --- | --- | --- | --- | --- | --- | --- |
| < 0.02 nM | 1.1 nM | no binding (tested: 20 nM) | ~0.07 nM | 1.81 nM |  |  | PI-3008-AB (antibody, mouse IgG2a, kappa, V domains shown, Recombinant anti-mouse MARCO antibody with mouse IgG2a Fc, from PI-HX-3016) VH: EVQLVESGGGLVKPGASLKLSCVASGFTFSDDWMNWVRQTPGKAMEWIGDIKYDGSYTNYVPSLKNRLTISRDNAKNTLYLQMTNVRSEDTATYYCTSGGVFDYWGQGVMVTVSS VL: EIVLSQSPTTMAASPGEKVTITCRASSSVSYMHWFQQKSGTSPKPWIYDTSKLASGVPDRFSGSGSGTSYSLTISSMEAEDAATYYCLQRSGYPPTFGAGTKLEVKR |
|  |  | binds |  |  | binds | binds | PI-3035-AB (antibody, mouse IgG2a, kappa, V domains shown, Mouse IgG2a chimera derived from PI-HX-3092; also called HX3092 (A mutation) - mIgG2a) VH: QVQLKESGPGLVQPSQTLSLTCTVSGFSLTSYTLSWVRQPPGKGLEWIGAIWGGDNTDYNSALKSRLSISRDTSKSQVLLKMNSLQTEDTAIYFCTRELGGSFDYWGQGVMVTVSS VL: DIQMTQSPPVLSASVGDRVTLSCKTSQNINKKLDWYQQKHGEAPKLLIYYTNNLQTGIPSRFSGSGSGTDFTLTISTLQPEDVATYYCYQYDSGFTFGAGTKLELKR |
